Data reported in article PMC3035050 (Molecular microbiology, 2008).
Substitutions are numbered along the chain they refer to. Each block holds one molecule with its values, some of them ahead of it.

T1: B. stearothermophilus primase DnaG R495A (B. stearothermophilus, UniProt Q9X4D0 1-597, R495A)
T1 sequence (looked up): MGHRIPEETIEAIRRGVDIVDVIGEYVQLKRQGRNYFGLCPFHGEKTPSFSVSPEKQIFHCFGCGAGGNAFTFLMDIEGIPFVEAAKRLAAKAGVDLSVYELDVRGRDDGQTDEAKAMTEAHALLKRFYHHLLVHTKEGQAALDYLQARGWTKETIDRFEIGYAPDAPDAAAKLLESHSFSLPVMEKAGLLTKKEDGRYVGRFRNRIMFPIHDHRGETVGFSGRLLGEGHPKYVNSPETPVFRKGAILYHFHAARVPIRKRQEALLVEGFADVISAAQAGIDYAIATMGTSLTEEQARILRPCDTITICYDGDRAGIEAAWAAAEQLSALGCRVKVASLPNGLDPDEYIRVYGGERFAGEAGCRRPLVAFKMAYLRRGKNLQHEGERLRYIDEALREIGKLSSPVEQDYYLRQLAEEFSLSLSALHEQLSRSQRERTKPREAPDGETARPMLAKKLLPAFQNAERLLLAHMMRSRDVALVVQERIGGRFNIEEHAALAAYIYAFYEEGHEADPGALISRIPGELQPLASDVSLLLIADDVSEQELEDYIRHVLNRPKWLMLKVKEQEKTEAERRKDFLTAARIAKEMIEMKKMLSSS

T2: B. stearothermophilus primase DnaG R555A (B. stearothermophilus, UniProt Q9X4D0 1-597, R555A)
T2 sequence (looked up): T1 sequence (looked up) with A495R, R555A

T3: B. stearothermophilus primase DnaG H494A (B. stearothermophilus, UniProt Q9X4D0 1-597, H494A)
T3 sequence (looked up): T1 sequence (looked up) with H494A, A495R

T4: B. stearothermophilus primase DnaG E464G (B. stearothermophilus, UniProt Q9X4D0 1-597, E464G)
T4 sequence (looked up): T1 sequence (looked up) with E464G, A495R

B1: Bacillus stearothermophilus primase DnaG (native) (enzyme, B. stearothermophilus, UniProt Q9X4D0 1-597, looked up)
chain: T1 sequence (looked up) with A495R
B2: Bacillus stearothermophilus replicative helicase DnaB (native) (enzyme, B. stearothermophilus)
chain: MSELFSERIPPQSIEAEQAVLGAVFLDPAALVPASEILIPEDFYRAAHQKIFHAMLRVADRGEPVDLVTVTAELAASEQLEEIGGVSYLSELADAVPTAANVEYYARIVEEKSVLRRLIRTATSIAQDGYTREDEIDVLLDEADRKIMEVSQRKHSGAFKNIKDILVQTYDNIEMLHNRDGEITGIPTGFTELDRMTSGFQRSDLIIVAARPSVGKTAFALNIAQNVATKTNENVAIFSLEMSAQQLVMRMLCAEGNINAQNLRTGKLTPEDWGKLTMAMGSLSNAGIYIDDTPSIRVSDIRAKCRRLKQESGLGMIVIDYLQLIQGSGRSKENRQQEVSEISRSLKALARELEVPVIALSQLSRSVEQRQDKRPMMSDIRESGSIEQDADIVAFLYRDDYYNKDSENKNIIEIIIAKQRNGPVGTVQLAFIKEYNKFVNLERRFDEAQIPPGA

Key:
[1] = target: Bacillus stearothermophilus replicative helicase DnaB (native) (B. stearothermophilus) (UniProt Q9X4C9); test: ITC
[2] = target: B2; test: ITC
[3] = target: T1, B. stearothermophilus primase DnaG R495A; test: SEC
[4] = target: T2, B. stearothermophilus primase DnaG R555A; test: SEC
[5] = target: T3, B. stearothermophilus primase DnaG H494A; test: ITC
[6] = target: T4, B. stearothermophilus primase DnaG E464G; test: ITC
[7] = target: B1; test: ITC

Kd [1]: 83.3 nM | stoichiometry N [1]: 0.509
Molecule: B. stearothermophilus primase DnaG Y548A (from UniProt Q9X4D0 1-597) (enzyme)

Molecule: B1
dH [2]: 17.8 kcal/mol | stoichiometry N [2]: 0.287

Molecule: B2
binding result [3]: binds | binding result [4]: binds | Ka [5]: 1.18e+08 M⁻¹ | Kd [5]: 8.5 nM | Ka [6]: 1.18e+08 M⁻¹ | Kd [6]: 8.5 nM | Ka [7]: 1.42e+08 M⁻¹ | Kd [7]: 7.04 nM
